Measurements from patent publication US20230211007A1 (published 2023).
Where a chain is given by its changes, count along the chain named.

B1: WT Rituximab (antibody, human IgG1, kappa)
heavy: not shown
light: QIVLSQSPAILSASPGEKVTMTCRASSSVSYIHWFQQKPGSSPKPWIYATSNLASGVPVRFSGSGSGTSYSLTISRVEAEDAATYYCQQWTSNPPTFGGGTKLEIKRTVAAPSVFIFPPSDEQLKSGTASVVCLLNNFYPREAKVQWKVDNALQSGNSQESVTEQDSKDSTYSLSSTLTLSKADYEKHKVYACEVTHQGLSSPVTKSFNRGEC
notes: also called anti-CD20 wild-type antibody
B2: anti-CD20 antibody mutant 124C (antibody, human IgG1, kappa)
heavy: not shown
light: B1 light with Q123C
B3: anti-CD20 antibody mutant 166C (antibody, human IgG1, kappa)
heavy: not shown
light: B1 light with Q165C

Molecular target: T1, CD20 (UniProt P11836 142-188, limits assumed)
T1 construct: Bought reagent
T1 chain (looked up): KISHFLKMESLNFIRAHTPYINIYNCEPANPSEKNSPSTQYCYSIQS
Experiment: BLI (Octet), antibody on Pro A probe, CD20 25-200 nM in solution
Protocol: Antibody samples were dissolved in PBS with a working concentration of 10 μg/mL; CD20 (Beijing SinoBiological Co., Ltd.) was dissolved in PBS and gradiently diluted to concentrations of 25 nM, 50 nM, 75 nM, 100 nM, 150 nM, 200 nM respectively. The working volume was 200 μL.
The data diagram was fitted by OCTET system and data-processing software, and the intermolecular interaction between the antibody and the CD20 was calculated by the software, and shown in KD value.

Row | Binder | Kd [nM]
1 | B1 | 5.35
2 | B2 | 8.97
3 | B3 | 4.86
